B1: PP1160 MPB-scTRP-PAPA-R5a-C5-H6 (VHH)
VHH: QVQLVESGGGLVQPGGSLRLSCAASGDIFSINALHWFRQAPGKQREEVAAITSGGSTGYADSVKGRFTISRDNAKNTVYLQMNSLKPEDTAVYYCAAQQARGGLDSDYWGQGTQVTVSS
notes: Form: Trimer
B2: PP1154 MBP-5HVZ-PAPA-R5d-G1-H6 (VHH)
VHH: QVQLVESGGGLVQPGGSLRLSCAASGSIFGINDVHWFRQAPGKEREFVATITNGLSARYKDSVKGRFTISRDNAKNTVYLQMNSLKPEDTAVYYCAAQVYITTYELYDYWGQGTQVTVSS
notes: Form: Dimer
B3: PP1145 MBP-5HVZ-PAPA-R2d-A6-H6 (VHH)
VHH: QVQLVESGGGLVQPGGSLRLSCAASGSGASIGAMHWFRQAPGKGREWVASITSAGNTYYGDSVKGRFTISRDNAKNTVYLQMNSLKPEDTAVYYCNALAGANYESQWEEYNYWGQGTQVTVSS
notes: Form: Dimer
B4: PP1101 MBP-5HVZ-PAPA-RN-16-H6 (VHH)
VHH: QVQLVESGGGLVQPGGSLRLSCAASGADFSSNAMHWFRQAPGKAREFVASIDSDKSGYYADSVKGRFTISRDNAKNTVYLQMNSLKPEDTAVYYCNAYSGTDNYGYDYWGQGTQVTVSS
notes: Form: Dimer
B5: PP1094 MBP-5HVZ-PAPA-RN-1-H6 (VHH)
VHH: QVQLVESGGGLVQPGGSLRLSCAASGYIFEGGPTAWFRQAPGKGREFVAAITTSGETSYAYSVKGRFTISRDNAKNTVYLQMNSLKPEDTAVYYCNATDRDETGYDYWGQGTQVTVSS
B6: PP912 MBP-5HVZ-S2b-G8-H6 (VHH)
VHH: QVQLVESGGGLVQPGGSLRLSCAASGSIQSYEAMHWFRQAPGKAREWVAVITWGDSTQYGDSVKGRFTISRDNAKNTVYLQMNSLKPEDTAVYYCAADVRQGYSSWGQGTQVTVSS
notes: Form: Dimer
B7: PP1112 MBP-5HVZ-PAPA-RN-28-H6 (VHH)
VHH: QVQLVESGGGLVQPGGSLRLSCAASGSQFSHNLMSWFRQAPGKQREFVAAITSFGSTGYADSVKGRFTISRDNAKNTVYLQMNSLKPEDTAVYYCAALSSEDTSHYPRNYWGQGTQVTVSS
notes: Form: Dimer
B8: PP931 MBP-5HVZ-R5a-F5-H6 (VHH)
VHH: QVQLVESGGGLVQPGGSLRLSCAASGYHASILAMHWVRQAPGKEREWVASMTWSDMTQYSDSVKGRFTISRDNAKNTVYLQMNSLKPEDTAVYYCAATYVTRDRPWTHWGQGTQVTVSS
notes: Form: Dimer
B9: PP933 MBP-5HVZ-R5e-C1-H6 (VHH)
VHH: QVQLVESGGGLVQPGGSLRLSCAASGSIPYVQAMSWFRQAPGKGREGVASIGWGGGTYYADSVKGRFTISRDNAKNTVYLQMNSLKPEDTAVYYCAAKFRENFSFYDYWGQGTQVTVSS
notes: Form: Dimer
B10: PP1111 MBP-5HVZ-PAPA-RN-27-H6 (VHH)
VHH: QVQLVESGGGLVQPGGSLRLSCAASGPQFSSNAVSWFRQAPGKEREWVAGITSGGSTDYADSVKGRFTISRDNAKNTVYLQMNSLKPEDTAVYYCTAPSVSDADRRTRDYWGQGTQVTVSS
notes: Form: Dimer
B11: PP1099 MBP-5HVZ-PAPA-RN-12-H6 (VHH)
VHH: QVQLVESGGGLVQPGGSLRLSCAASGSSFEGNAVHWFRQAPGKNREFVATITTSTSYYYADSVKGRFTISRDNAKNTVYLQMNSLKPEDTAVYYCAARLKDRGPQSEYDYWGQGTQVTVSS
notes: Form: Dimer
B12: PP909 MBP-5HVZ-S2b-A7-H6 (VHH)
VHH: QVQLVESGGGLVQPGGSLRLSCAASGSSDSWNALHWFRQAPGKEREFVAGISSAGSGYYADSVKGRFTISRDNAKNTVYLQMNSLKPEDTAVYYCNGYEHTTGYDYWGQGTQVTVSS
notes: Form: Dimer
B13: PP1109 MBP-5HVZ-PAPA-RN-25-H6 (VHH)
VHH: QVQLVESGGGLVQPGGSLRLSCAASGEDYSYNAAHWFRQAPGKEREWVAAINSGGGTYYADSVKGRFTISRDNAKNTVYLQMNSLKPEDTAVYYCAYLGALDRDGYDAWGQGTQVTVSS
notes: Form: Dimer
B14: PP1104 MBP-5HVZ-PAPA-RN-19-H6 (VHH)
VHH: QVQLVESGGGLVQPGGSLRLSCAASGIDDSIGAMHWFRQAPGKGREFVAALSGTGTTSYADSVKGRFTISRDNAKNTVYLQMNSLKPEDTAVYYCAAAFPAGGDYWGQGTQVTVSS
notes: Form: Dimer
B15: PP930 MBP-5HVZ-R2b-D4-H6 (VHH)
VHH: QVQLVESGGGLVQPGGSLRLSCAASGSYASIASMHWFRQAPGKQREFVAGLTSGGSRIYGDSVKGRFTISRDNAKNTVYLQMNSLKPEDTAVYYCTALILHYAGMYDYWGQGTQVTVSS
notes: Form: Dimer
B16: PP1105 MBP-5HVZ-PAPA-RN-20-H6 (VHH)
VHH: QVQLVESGGGLVQPGGSLRLSCAASGNYFEINKMHWFRQAPGKQREFVATIGSGGSTAYADSVKGRFTISRDNAKNTVYLQMNSLKPEDTAVYYCNALIYLADRRDGYYSYDYWGQGTQVTVSS
notes: Form: Dimer
B17: PP1098 MBP-5HVZ-PAPA-RN-9-H6 (VHH)
VHH: QVQLVESGGGLVQPGGSLRLSCAASGLRFAMTEMAWFRQAPGKQREFVALITEGGSGSYGDSVKGRFTISRDNAKNTVYLQMNSLKPEDTAVYYCAALHYTEGANTESATTFDYWGQGTQVTVSS
B18: PP1110 MBP-5HVZ-PAPA-RN-26-H6 (VHH)
VHH: QVQLVESGGGLVQPGGSLRLSCAASGSISSINSMHWYRQAPGKEREWVAAVSSYGSDYYADSVKGRFTISRDNAKNTVYLQMNSLKPEDTAVYYCAARTVTGFTYGDYWGQGTQVTVSS
notes: Form: Dimer
B19: PP906 MBP-5HVZ-S1b-E7-H6 (VHH)
VHH: QVQLVESGGGLVQPGGSLRLSCAASGGEFSDNGLHWFRQAPGKQREFVATASSDGSTQYRDSVKGRFTISRDNAKNTVYLQMNSLKPEDTAVYYCTALLMSSAGEYDVWGQGTQVTVSS
notes: Form: Dimer
B20: PP1095 MBP-5HVZ-PAPA-RN-2-H6 (VHH)
VHH: QVQLVESGGGLVQPGGSLRLSCAASGSYFSKNAVHWYRQAPGKGREWVAALTNSGSGNYKDSVKGRFTISRDNAKNTVYLQMNSLKPEDTAVYYCTANISESTGQGYDYWGQGTQVTVSS
B21: PP927 MBP-5HVZ-R1i-C8-H6 (VHH)
VHH: QVQLVESGGGLVQPGGSLRLSCAASGRQFGAWRMHWYRQAPGKQREWVAGITSGTSGNYADSVKGRFTISRDNAKNTVYLQMNSLKPEDTAVYYCAATSHTTYHAEYWGQGTQVTVSS
notes: Form: Dimer
B22: PP1176 MBP-5HVZ-PAPA-R2a-F3-H6 (VHH)
VHH: QVQLVESGGGLVQPGGSLRLSCAASGSITSINWMHWFRQAPGKDREGVASISQTGRGSYADSVKGRFTISRDNAKNTVYLQMNSLKPEDTAVYYCAAASRTGTPYNYWGQGTQVTVSS
notes: Form: Dimer
B23: PP915 MBP-5HVZ-S3b-A7-H6 (VHH)
VHH: QVQLVESGGGLVQPGGSLRLSCAASGSIASINAIHWVRQAPGKQREEVAAITSGGSTGYADSVKGRFTISRDNAKNTVYLQMNSLKPEDTAVYYCAAQPGQSYAVWGQGTQVTVSS
notes: Form: Dimer

molecular target: T1, SARS-CoV-2 spike protein on pseudotyped lentivirus (Wuhan Reference Pseudovirus) (SARS-CoV-2, UniProt P0DTC2 14-1273); experiment: cell-based or functional assay

Row | Binder | Pseudovirus neutralization IC50
1 | B1 | 2.41 nM
2 | B2 | 272 nM
3 | B3 | 146 nM

molecular target: T2, SARS-CoV-2 Gamma Variant RBD (SARS-CoV-2 Gamma variant); experiment: ELISA, RBD coated
T2 construct: domain: RBD; coated on ELISA plates

Row | Binder | EC50
4 | B4 | 51.5 nM
5 | B5 | 160 nM
6 | B6 | 177 nM
7 | B7 | 3.01 nM
8 | B8 | 110 nM
9 | B9 | 9.73 nM
10 | B10 | 1.6 nM
11 | B11 | 160 nM
12 | B12 | 5.37 nM
13 | B13 | 11 nM
14 | B14 | 29.5 nM
15 | B15 | 10.2 nM
16 | B16 | 15.4 nM
17 | B2 | 15.8 nM
18 | B17 | 11.2 nM
19 | B18 | 8.98 nM
20 | B3 | 5.49 nM
21 | B19 | 378 nM
22 | B20 | 90.9 nM

molecular target: T3, SARS-CoV-2 Alpha Variant RBD (SARS-CoV-2 Alpha variant); experiment: ELISA, RBD coated
T3 construct: domain: RBD; coated on ELISA plates

Row | Binder | EC50
23 | B21 | 2.22 nM
24 | B4 | 1.77 nM
25 | B5 | 0.89 nM
26 | B6 | 1.96 nM
27 | B7 | 1.76 nM
28 | B22 | 0.27 nM
29 | B8 | 2.07 nM
30 | B9 | 9.74 nM
31 | B10 | 0.31 nM
32 | B11 | 4.95 nM
33 | B23 | 0.52 nM
34 | B12 | 0.44 nM
35 | B13 | 1.12 nM
36 | B14 | 1.09 nM
37 | B15 | 3.9 nM
38 | B16 | 1.41 nM
39 | B2 | 2.37 nM
40 | B17 | 0.97 nM
41 | B18 | 4.98 nM
42 | B3 | 1.94 nM
43 | B19 | 1.97 nM
44 | B20 | 1.18 nM

molecular target: T4, SARS-CoV-2 Delta Variant RBD (SARS-CoV-2 Delta variant); experiment: ELISA, RBD coated
T4 construct: domain: RBD; coated on ELISA plates

Row | Binder | EC50
45 | B21 | 94.2 nM
46 | B4 | 42.6 nM
47 | B5 | 49.9 nM
48 | B6 | 622 nM
49 | B7 | 15.1 nM
50 | B22 | 2.67 nM
51 | B8 | 127 nM
52 | B9 | 8.87 nM
53 | B10 | 231 nM
54 | B23 | 37.8 nM
55 | B12 | 81.4 nM
56 | B13 | 115 nM
57 | B14 | 295 nM
58 | B15 | 21.1 nM
59 | B16 | 36.6 nM
60 | B2 | 221 nM
61 | B18 | 407 nM
62 | B3 | 89 nM
63 | B19 | 205 nM
64 | B20 | 16.9 nM

molecular target: T5, SARS-CoV-2 Beta Variant RBD (SARS-CoV-2 Beta variant); experiment: ELISA, RBD coated
T5 construct: domain: RBD; coated on ELISA plates

Row | Binder | EC50
65 | B4 | 115 nM
66 | B5 | 315 nM
67 | B6 | 365 nM
68 | B7 | 4.77 nM
69 | B8 | 134 nM
70 | B9 | 10.2 nM
71 | B10 | 1.57 nM
72 | B11 | 194 nM
73 | B12 | 8.1 nM
74 | B13 | 17.1 nM
75 | B14 | 44.9 nM
76 | B15 | 13 nM
77 | B16 | 26.6 nM
78 | B2 | 24.7 nM
79 | B17 | 24.8 nM
80 | B18 | 17 nM
81 | B3 | 30.9 nM
82 | B19 | 988 nM
83 | B20 | 193 nM

molecular target: T1, SARS-CoV-2 spike protein on pseudotyped …; experiment: cell-based or functional assay; remark: another data set of the same source

Row | Binder | infectivity % under 10 ug/mL VHH treatment
84 | B21 | 45.4%
85 | B4 | 91.8%
86 | B5 | 83.4%
87 | B6 | 73.2%
88 | B7 | 70.4%
89 | B22 | 58.4%
90 | B1 | 4.22%
91 | B8 | 57.5%
92 | B10 | 68.3%
93 | B11 | 70.6%
94 | B23 | 90.5%
95 | B13 | 88%
96 | B14 | 73.8%
97 | B15 | 35.6%
98 | B16 | 79.8%
99 | B2 | 53.2%
100 | B17 | 58.3%
101 | B18 | 57.9%
102 | B3 | 65.2%
103 | B19 | 69.6%
104 | B20 | 76.8%

From US20240150440A1 (LUMEN BIOSCIENCE, published 2024)
